Laboratory results as given in patent publication US20220064294A1 (ARCUS BIOSCIENCES, published 2022).

Assays:
[1] = molecular target: T1, human TIGIT, full length, on cells (human, UniProt Q495A1 22-244); experiment: cell-based or functional assay
T1 sequence: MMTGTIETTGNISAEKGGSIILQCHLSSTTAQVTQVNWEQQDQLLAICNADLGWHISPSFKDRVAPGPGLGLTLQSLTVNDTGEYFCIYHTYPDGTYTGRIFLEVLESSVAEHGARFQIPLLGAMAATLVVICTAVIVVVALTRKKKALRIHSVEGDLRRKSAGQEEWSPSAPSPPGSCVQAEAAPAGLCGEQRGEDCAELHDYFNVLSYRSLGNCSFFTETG

[2] = molecular target: T1, human TIGIT, full length, on cells; experiment: flow cytometry, inhibition of hCD155-Fc binding to CHO-hTIGIT cells
Method: The activity of Hu24F8.1-IgG1.AA and Hu24F8.2-IgG1.AA to block the interaction of TIGIT with CD155 was analyzed by flow cytometry using CHO cells stably overexpressing human TIGIT (CHO-hTIGIT) and human CD155-Fc fusion recombinant soluble protein (hCD155-Fc), as described in Example 1. […] The IC₅₀ for Hu24F8.1-IgG1.AA to block the TIGIT-CD155 interaction was 0.68 nM, and for Hu24F8.2-IgG1.AA it was 0.67 nM.

cTIGIT-His = molecular target: T2, cTIGIT-His (cynomolgus monkey); experiment: SPR, Biacore T200, antibody captured on anti-human IgG chip, cTIGIT-His as analyte
T2 construct: also called His-tagged cyno TIGIT protein extracellular domain; soluble cTIGIT-His
T2 chain: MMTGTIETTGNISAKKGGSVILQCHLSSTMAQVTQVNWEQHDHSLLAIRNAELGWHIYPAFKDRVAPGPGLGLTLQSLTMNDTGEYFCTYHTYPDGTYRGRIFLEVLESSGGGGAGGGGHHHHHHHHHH
Method: (§1) The purified, full-length antibodies Hu24F8.1-IgG1.AA (containing VH1+VL2) and Hu24F8.2-IgG1.AA (containing VH2+VL2), together with the full-length chimera antibody of 24F8 mouse VH+VL and human IgG1/kappa constant domains (Ch24F8), were analyzed by SPR using a Biacore T200 instrument with antibody capture using an anti-human IgG coated chip and soluble hTIGIT-His or cTIGIT-His as the analyte.

hTIGIT-His = molecular target: T3, hTIGIT-His (human); experiment: SPR, Biacore T200, antibody captured on anti-human IgG chip, hTIGIT-His as analyte
T3 construct: also called His-tagged human TIGIT protein extracellular domain; soluble hTIGIT-His
T3 chain: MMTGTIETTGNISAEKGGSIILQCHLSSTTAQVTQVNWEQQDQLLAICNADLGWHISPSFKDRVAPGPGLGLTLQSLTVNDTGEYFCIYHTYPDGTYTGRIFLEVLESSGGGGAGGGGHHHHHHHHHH
Method: as §1

[3] = molecular target: T4, cynomolgus monkey TIGIT, full length, on cells (cynomolgus monkey); experiment: flow cytometry on stable CHO-K1 cells expressing cyno TIGIT (clone C10); cyno TIGIT, CHO-K1 clone C10, n=6
T4 construct: Whole entry of 312 amino acids; also called cyno TIGIT; cTIGIT
Method: (§2) Binding of antibodies Hu24F8.1-IgG1.AA and Hu24F8.2-IgG1.AA to TIGIT expressed on cell surface was examined by flow cytometry. Cells expressing TIGIT on cell surface were collected and incubated in 100 μL of HBSS Buffer in the presence (or absence) of various concentrations of antibody for 1 hr at 4° C. After washing with HBSS, antibody binding on cells was detected with 2 μg/mL of Alexa488-labeled goat anti-human IgG antibody (ThermoFisher Scientific, Cat #A-11013) for 30 min at 4° C. Cells were then washed and resuspended in PBS and subjected to flow cytometry using a Attune NxT flow cytometer (ThermoFisher Scientific, Waltham, Mass.). GeoMean of fluorescence intensity was obtained for the whole single cell population, and for transient transfection, non-transfected cells were used to gate for the positive binding cell population to obtain percent of positive cells. Data was calculated by GraphPad Prism using the standard 4-parameter curve fitting.
(§3) Stable CHO-K1 cell lines expressing human TIGIT (clone 2A7) and cyno TIGIT (clone C10) were used to test Hu24F8.1-IgG1.AA and Hu24F8.2-IgG1.AA for their binding to human TIGIT and cyno TIGIT, respectively, as described above. […] Hu24F8.2-IgG1.AA bound to human TIGIT with an EC₅₀ 0.29±0.15 nM (n=8) (FIG. 3A) and to cyno TIGIT with an EC₅₀ of 0.35±0.16 nM (n=6) (FIG. 3B).

[4] = molecular target: T1, human TIGIT, full length, on cells; experiment: flow cytometry on stable CHO-K1 cells expressing human TIGIT (clone 2A7); human TIGIT, CHO-K1 clone 2A7, n=8
Method: as §2, §3

B1: Hu24F8.1-IgG1.AA (antibody, V domains shown)
VH: QVQLQESGPGLVKPSETLSLTCAVYGYSITSGYSWHWIRQPPGKGLEWIGYVHYSGSTNYNPSLKSRVTISVDTSKNQFSLKLSSVTAADTAVYYCARMDYGNYGGAMDYWGQGTLVTVSS
VL: EIVMTQSPATLSVSPGERATLSCKASQDVRTAVAWYQQKPGQAPRLLIYSASYRYTGIPARFSGSGSGTEFTLTISSLQSEDFAVYYCQQYYSTQWTFGGGTKVEIKR
notes: IgG1/kappa; also called Hu24F8.1 (VH1+VL2), IgG1/kappa with L234A/L235A
[1]
  EC50 of luciferase reporter activity, TIGIT/CD155 Blockade Bioassay (Jurkat cells overexpressing TIGIT with CD155 aAPC/CHO-K1 cells): 3.35 nM
[2]
  IC50: 0.68 nM
cTIGIT-His
  Kd: 1.74 nM
  koff: 0.0014 s⁻¹
  kon: 806000 M⁻¹ s⁻¹
hTIGIT-His
  Kd: 0.144 nM
  koff: 0.000145 s⁻¹
  kon: 1.01e+06 M⁻¹ s⁻¹
[3]
  EC50: 0.237 nM
[4]
  EC50: 0.447 nM
